Assay: yeast display, Sf9 membrane polyspecificity reagent, FACS + sequencing; frameworks hold sequencing errors
Summary of the method: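 Galactose-induced (36–48 hours) yeast carrying a synthetic nanobody display library were exposed to 10% biotinylated, detergent-solubilized Sf9 membrane reagent at 4 °C for 1 hour. FACS followed streptavidin microbead enrichment, using low and high (top ~1%) gates for expression (anti-HA) and reagent binding (streptavidin). Colony PCR, MiSeq 2 × 250 sequencing and CDR-length filtering followed. Labels for polyreactivity reflect the gate of origin.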

| Sequence | polyreactivity (PSR sort gate) |
| --- | --- |
| QVQLVESGGGLVQAGGSLRLSCAASGSTFYHYTMGWYRQAPGKERELVAAITYSGGRTYYADSVKGRFTISRDNAKNTVYLQKNSLKPEDTAVYYCAATYSTPGAGYYHYWGQGTQVTVSS | high polyreactivity |
| QVQLVESGGGLVQAGGSLRLSCAASGSTFYIYAMGWYRPAPGKERELVAAIDWTGSTYYADSVKGRFTISRDNAKNTVNLQMNSLKPEDTAVYYCAAYYDLEDDSYRLNSWGQGTQVTVSS | high polyreactivity |
| QVQLVESGGGLVQAGGSLRLSCAASGSTFYIYAMGWYRQAPGKERELVAAISGRGGSTYYADSVKGRFTISRDNAKNTVYLQMNSLKPEDTAVYYCATSLRVRRSSRDYWGQGTQVTVSS | high polyreactivity |
| QVQLVESGGGLVQAGGSLRLSCAASGSTFYIYAMGWYRQAPGKERELVARITRGGTTYADSVKGRFTISRDNAKNTVYLQINSLKPEDTAVYYCAARSFNIRGRYDYWGQGTQVTVSS | high polyreactivity |
| QVQLVESGGGLVQAGGSLRLSCAASGSTFYIYAMGWYRQAPGKERELVASIRLSTGRTNYADSVKGRFTISRDNAKNTVYLQMNSLKPEDTAVYYCAAAGYRGGGYWGQGTQVTVSS | high polyreactivity |
| QVQLVESGGGLVQAGGSLRLSCAASGSTFYIYAMGWYRQAPGQERELVATISWSGGSTYYADSVKGRFTISRDNAKNTVYLQMNSLKPEDTAVYYCAVRPGFGRSLWYGYWGQGTQVTVSS | high polyreactivity |
| QVQLVESGGGLVQAGGSLRLSCAASGSTFYIYAMGWYRQSPGKERELVAVITRGGSTYYADSVKGRFTISRDNAKNTVYLQMNSLKPEDTAVYYCAARYWNGTRDTYGSWGQGTQVTVSS | high polyreactivity |
| QVQLVESGGGLVQAGGSLRLSCAASGSTFYKNAMGWYRQAPGKERELVARISGRGGSTYYADSVKCRFTISRDNAKNSVYLQMNSLKPEDTAVYYCNAVKYSSSAALYDYWGQGTQVTVSS | high polyreactivity |
| QVQLVESGGGLVQAGGSLRLSCAASGSTFYKNTMGWYRQAPGKERELVATISSGDSTYADSVKGRFTISRDNAKNTVYLQMNSLKPEDTAVYYCAAASDLPGTGGYDYWGPGTQVTVSS | low polyreactivity |
| QVQLVESGGGLVQAGGSLRLSCAASGSTFYLNAMGSYRQAPGKERELVAAISSGGRTYYADSVKGRFPISRDNAKNTDYLQMNSLKPEDTAVYYCNAVRYLRGAYNYWGQGTQVTVSS | high polyreactivity |
| QVQLVESGGGLVQAGGSLRLSCAASGSTFYLNAMGWYRQAPGKERELVAAISSGGNTNYADSVKGRFTISRDNAKNTVYLQMNSLKPEDTAVYYCAAVYLSWYGLGEYWGQGTQVTVSS | low polyreactivity |
| QVQLVESGGGLVQAGGSLRLSCAASGSTFYLNAMGWYRQAPGKERELVAVITRSGGNTYYADSVKGRFTISRDNAKNTVYLQMNSLKPEDTAVYYCNKRPTGGKYEYWGQGTQVTVSS | high polyreactivity |
| QVQLVESGGGLVQAGGSLRLSCAASGSTFYLNPMGWYRQAPGKERELVAVITSSGGSTNYADSVKGRFTISRDNAKITVYLQMNSLKPEDSAVYYCNRRPYPSYDYWGHGTQVTVSS | low polyreactivity |
| QVQLVESGGGLVQAGGSLRLSCAASGSTFYLYAMGWYRQAPGKEREFVAAITYSAGSTYYADSVKGRFTISRDNAKNTVYLQMNSLKPEDTAVYYCAARHYAVRRSRYPGKLGYYWGQGTQVTVSS | high polyreactivity |
| QVQLVESGGGLVQAGGSLRLSCAASGSTFYLYAMGWYRQAPGKERELVAAIRGGGITNYADSVKGRFTISRDNAKNTVYLQINSLKPEDTAVYYCAADSTLRGFDYWGQGTQVTVSS | high polyreactivity |
| QVQLVESGGGLVQAGGSLRLSCAASGSTFYLYAMGWYRQAPGKERELVAAISWSGDSTYYADSVKGRFTISRDNAKNTVYLQMNSLKPEDTAVYYCAAEFYWGDLSYWGQGTQVTVSS | high polyreactivity |
| QVQLVESGGGLVQAGGSLRLSCAASGSTFYLYAMGWYRQAPGKERELVARISSSGGRTYYADSVKGRFTISRDNAKNTVYLQMNSLKPEDTAVYYCAASSFTSSYNYWGQGTQVTVSS | high polyreactivity |
| QVQLVESGGGLVQAGGSLRLSCAASGSTFYLYVMGWYRQAPGKERELVAAIRRSGTRTYYADSVKGRFTISRDNAKNTVYLQMNSLKPEDTAVYYCAARYSRPSKAYGYWGQGTQVTVSS | high polyreactivity |
| QVQLVESGGGLVQAGGSLRLSCAASGSTFYNYAMGWYRQAPGKERELVAAISSSGGRTYYADSVKGRFTISRDNAKNTVYLQMNSLKPEDTAVYYCAASGRKNGMNYWGQGTQVTVSS | high polyreactivity |
| QVQLVESGGGLVQAGGSLRLSCAASGSTFYNYAMGWYRQAPGKERELVAAITSSGDRTYYADSVKGRFTISRDNAKNTVYLQMNSLKPEDTAVYYCATRRYFRYEYWGQGTQVTVSS | low polyreactivity |
| QVQLVESGGGLVQAGGSLRLSCAASGSTFYPYAMGWYIQAPGKERELVARISSDGSTYADSVKGRFTISRDNAKNTVYLQMNSLKPEDTAVYYCNADAGTGVGWWDDYDYWGQGTQVTVSS | low polyreactivity |
| QVQLVESGGGLVQAGGSLRLSCAASGSTFYPYAMGWYRQAPGKERELVAAISSGGSTNYADSVKGRFTISRDNAKYTVYLQMNSLKPEDTAVYYCAAASGSRRHGYWGQGTQVTVSS | high polyreactivity |

| Sequence | polyreactivity (PSR sort gate) |
| --- | --- |
| QVQLVESGGGLVQAGGSLRLSCAASGSTFYPYAMGWYRQAPGKERELVAAISSGGSTSYADSVKGRFTISRDNAKNTVYLQMNSLKPEDTEVYYCNASSPGAVPVYDYDYWGQGTQVTVSS | low polyreactivity |
| QVQLVESGGGLVQAGGSLRLSCAASGSTFYPYAMGWYRQAPGKERELVAAISYSGGSTYYADSVKGRFTISRDNAKNTVYLQMNSLKPEDTAVYYCAAYYRVYGASYDYWGQGTQVTVSS | high polyreactivity |
| QVQLVESGGGLVQAGGSLRLSCAASGSTFYPYAMGWYRQAPGKERELVAAITVSGGSTYYADSVKGRFTISRDNAKNTVYLQMNSLKPEDTAVYYCAVDGDPVFYTTYYYSYYYWGQGTQVTVSS | low polyreactivity |
| QVQLVESGGGLVQAGGSLRLSCAASGSTFYPYAMGWYRQAPGKERELVAAITYRGGSTYYADSVKGRFTISRDNAKNTVYLQMNSLKPEDTAVYYCAADIGRHTDNYDPRYDYWGQGTQVTVSS | low polyreactivity |
| QVQLVESGGGLVQAGGSLRLSCAASGSTFYPYAMGWYRQATGKERELVAAISSGGSTSYADSVKGRFTISRDNAKNTVYLQMNSLKPEDTAVYFCNASSPGAVPVYDYDYWGQGTQVTVSS | low polyreactivity |
| QVQLVESGGGLVQAGGSLRLSCAASGSTFYPYSMGWYRQAPGKERELSTYADSVKGRFTISRDNAKNSVYLQMNSLKPEDTAVYYCAALHWRWYDYWGQGTQVTVSS | low polyreactivity |
| QVQLVESGGGLVQAGGSLRLSCAASGSTFYPYVMGWYRQAPGKEREFVAAISKSGGSTYYADSVKGRFTISRDNAKNTVYLQMNSLKPEDTAVYYCNKKVASYYRSYYYWGQGTQVTVSS | high polyreactivity |
| QVQLVESGGGLVQAGGSLRLSCAASGSTFYQYSMGLYRQAHVKEREFVAAITTIGGLTFYADSVKGRFTISRDNAKNTVYLQMHSLKPEDTAVYYCAAGYRAWDPYGHYGYWGQGTQVTVSS | high polyreactivity |
| QVQLVESGGGLVQAGGSLRLSCAASGSTFYRNAMGWYRQAPGKERELVAAISTRGSSTYYADSVKGRFTISRDNAKNTVYLQMNSLKPEDTAVYYCTADGIYPVLKFDYDYWGQGTQVTVSS | low polyreactivity |
| QVQLVESGGGLVQAGGSLRLSCAASGSTFYRNAMGWYRQAPGKERELVAAITSRGTRTFYADSVKGRFTISRDNAKNTVYLQMNSLKPEDTAVYYCAVTYQAEYEYDYWGQGTQVTVSS | low polyreactivity |
| QVQLVESGGGLVQAGGSLRLSCAASGSTFYRNAMGWYRQAPGKERELVAGISRRGGSTYYADSVKGRFTISRDNAKNSVYLQMNSLKPEDTAVYYCAADVRSGGVAYGYGYWGQGTQVTVSS | high polyreactivity |
| QVQLVESGGGLVQAGGSLRLSCAASGSTFYRYAMGWYRQAPGKERELVAAITSAGSTNYADSVKGRFTISRDNAKNTVYLQMNSLKPEDTAVYYCAADHGRPYFSYDYWGQGTQVTVSS | low polyreactivity |
| QVQLVESGGGLVQAGGSLRLSCAASGSTFYRYAMGWYRQAPGKERELVAAITWSGGSTYYADSVKGRFTISRDNAKNTVYLQMNSLKPEDTAVYYCNAVARYYYKDQTIIHSPREDYWGQGTQVTVSS | low polyreactivity |
| QVQLVESGGGLVQAGGSLRLSCAASGSTFYRYTMGWYRQAPGKERELVAAITRSSGSTYYADSVKGRFTISRDNEKNTVYLQMNCLKPEDTAVYYCAAYVGGDRGFDYWGQGTQVTVSS | high polyreactivity |
| QVQLVESGGGLVQAGGSLRLSCAASGSTFYSNAMGWYRQAPGKERELVASISWSSGSTYYADSVKGRFTISRDNAKNTVYLQMNSLKPEDTAVYYCATDAGGPYRFGYWGQGTQVTVSS | low polyreactivity |
| QVQLVESGGGLVQAGGSLRLSCAASGSTFYSNAMGWYRQAPGKERELVATISQRGGRTYYADSVKGRFTISRDNAKNTVYLQMNSLKPEDTAVYYCAKAATSWYGRYGYDYWGQGTQVTVSS | low polyreactivity |
| QVQLVESGGGLVQAGGSLRLSCAASGSTFYSNVMGWYRQAPGKERELVAAISRSGGSTYYADSVKGRFTISRDNAKNTVYLQMNSLKPEDTAVYYCAARTYRRPYYSWGQGTQVTVSS | high polyreactivity |
| QVQLVESGGGLVQAGGSLRLSCAASGSTFYSYAMGWYRQAPGKERELVAAISSSAGSTYYADSVKGRFTISRDNAKNTVYLQMNSLKPEDTAVYYCAAPKRYGVRYGYWGQGTQVTVSS | high polyreactivity |
| QVQLVESGGGLVQAGGSLRLSCAASGSTFYSYAMGWYRQAPGKERELVAAISSSSGSTYYADSVKGRFTISRDNAKNTVYLQMNSLKPEDTAVYYCNRGRRYSHKYDYWGQGTQVTVSS | high polyreactivity |
| QVQLVESGGGLVQAGGSLRLSCAASGSTFYSYAMGWYRQAPGKERELVADIDWSGGSTYYADSVKGRFTISRDNAKNTVYLQMNSLKPEDTAVYYCNAERGATGYYVTGDDYWGQGTQVTVSS | low polyreactivity |
| QVQLVESGGGLVQAGGSLRLSCAASGSTFYSYTMGWYRQAPGKERELVAAISRSAGSTYYADSVKGRFTISRDHAKNTVYLQMNSLKPEVTAVYYCAATLGRTYYSRWYGMDYWGQGTQVTVSS | high polyreactivity |
